Experimental data from patent publication US20200206358A1, “LONG-CIRCULATING THERANOSTIC AGENTS FOR DIAGNOSING AND IMAGING METASTATIC TUMORS” (The Board of Trustees of the Leland Stanford Junior …, priority 2018, published 2020).
Non-standard residues stand in square brackets, D forms with d. Residues, ends and D or L forms follow the SMILES beside them. ξ: configuration not given here. *: point of attachment. X1 = Cc1cc(-c2ccc(N*)c(C)c2)ccc1N=Nc1ccc2c(S(=O)(=O)O)cc(S(=O)(=O)O)c(N)c2c1O; DOTA = O=C(O)CN1CCN(CC(=O)O)CCN(CC(=O)*)CCN(CC(=O)O)CC1; ξE = NC(CCC(=O)O)C(=O)O

Legend:
[1] = cell uptake of [^64Cu]DOTA-EB-TMTP1; assay type: cell-based; settings: n=4, mean±SD; uptake ratio increased with time
[2] = microPET/CT imaging, time activity curves in 143B tumor bearing nude mice; assay type: in vivo; settings: mouse, in vivo, iv; 8 h after i.v. injection, 143B tumor bearing nude mice; read-out: tumor uptake (plateau, PET time activity curve)
Protocol: (§1) The tumor uptake of [^64Cu]DOTA-EB-TMTP1 was increased as time goes by, and reached the plateau of 6.5±0.8% ID/g at 8 h after injection.

[3] = tested on: 143B tumor; assay: as above; assay type: in vivo
Protocol: as §1

[4] = in vivo; design: species or system nude mice; settings: nude, mouse, iv
From the text: Tumor uptake was 6.7[…]% ID/g.

[5] = tested on: 143B cells; assay: inhibition of [^64Cu]DOTA-EB-TMTP1 binding to 143B cells by TMTP1; settings: TMTP1 competing with [^64Cu]DOTA-EB-TMTP1 on 143B cells; unit inferred
[6] = tested on: highly metastatic tumor cells; settings: literature, PLOS One (2012) 7(9): e42685; cited from earlier work

| Molecule | time at which cell uptake ratio reached the peak [1] [min] | tissue uptake at 8 h [2] [%ID/g] | tumor uptake (plateau, PET time activity curve) ([3]; 8 h after i.v. injection, 143B tumor bearing nude mice) | circulation time in the body ([3]; mouse, in vivo) | pharmacokinetic properties ([3]; mouse, in vivo) | tissue uptake at 48 h [4] [%ID/g] | IC50 [5] [nM] | affinity for a series of highly metastatic tumor cells [6] |
| --- | --- | --- | --- | --- | --- | --- | --- | --- |
| Cc1cc(-c2ccc(NC(=O)CCC(NC(=O)CN3CCN(CC(=O)O)CCN(CC(=O)O)CCN(CC(=O)O)CC3)C(=O)NCC(=O)N[C@@H](CC(N)=O)C(=O)N[C@H](C(=O)N[C@H](C(=O)N[C@@H](CCCNC(=N)N)C(=O)N[C@@H](CCC(N)=O)C(=O)O)C(C)C)C(C)C)c(C)c2)ccc1N=Nc1ccc2c(S(=O)(=O)O)cc(S(=O)(=O)O)c(N)c2c1O (some centres unmarked) [[^64Cu]DOTA-EB-TMTP1, metal not drawn] ({DOTA}-[ξE](X1)GNVVRQ-OH) | 45 | 6.5 ± 0.8 | 6.5%±0.8 % ID/g | long circulation time | favorable pharmacokinetic properties | 6.7 | – | – |
| NVVRQ [TMTP1] | – | – | – | – | – | – | 211 | high affinity |
